# B1: Transcription factor p65 (Mus musculus), Q04207 (parent)
# chain: MDDLFPLIFPSEPAQASGPYVEIIEQPKQRGMRFRYKCEGRSAGSIPGERSTDTTKTHPTIKINGYTGPGTVRISLVTKDPPHRPHPHELVGKDCRDGYYEADLCPDRSIHSFQNLGIQCVKKRDLEQAISQRIQTNNNPFHVPIEEQRGDYDLNAVRLCFQVTVRDPAGRPLLLTPVLSHPIFDNRAPNTAELKICRVNRNSGSCLGGDEIFLLCDKVQKEDIEVYFTGPGWEARGSFSQADVHRQVAIVFRTPPYADPSLQAPVRVSMQLRRPSDRELSEPMEFQYLPDTDDRHRIEEKRKRTYETFKSIMKKSPFNGPTEPRPPTRRIAVPTRNSTSVPKPAPQPYTFPASLSTINFDEFSPMLLPSGQISNQALALAPSSAPVLAQTMVPSSAMVPLAQPPAPAPVLTPGPPQSLSAPVPKSTQAGEGTLSEALLHLQFDADEDLGALLGNSTDPGVFTDLASVDNSEFQQLLNQGVSMSHSTAEPMLMEYPEAITRLVTGSQRPPDPAPTPLGTSGLPNGLSGDEDFSSIADMDFSALLSQISS
# partner: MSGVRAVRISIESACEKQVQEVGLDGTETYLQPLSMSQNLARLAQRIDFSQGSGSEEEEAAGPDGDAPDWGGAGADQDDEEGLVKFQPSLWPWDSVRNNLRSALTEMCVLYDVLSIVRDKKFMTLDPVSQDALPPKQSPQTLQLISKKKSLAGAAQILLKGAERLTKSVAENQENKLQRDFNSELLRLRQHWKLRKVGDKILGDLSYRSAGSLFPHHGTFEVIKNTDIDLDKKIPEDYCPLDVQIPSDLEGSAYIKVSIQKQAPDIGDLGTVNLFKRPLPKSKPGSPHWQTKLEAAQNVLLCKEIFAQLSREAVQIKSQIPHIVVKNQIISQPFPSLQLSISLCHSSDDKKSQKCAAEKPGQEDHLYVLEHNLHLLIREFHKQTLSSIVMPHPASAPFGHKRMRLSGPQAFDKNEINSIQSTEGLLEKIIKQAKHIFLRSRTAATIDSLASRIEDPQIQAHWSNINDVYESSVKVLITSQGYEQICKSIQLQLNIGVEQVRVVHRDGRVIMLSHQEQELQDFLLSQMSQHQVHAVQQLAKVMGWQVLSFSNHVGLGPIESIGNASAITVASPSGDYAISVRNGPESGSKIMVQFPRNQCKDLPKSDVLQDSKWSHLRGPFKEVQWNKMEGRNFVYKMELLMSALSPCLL
# Variants of: B1
# Conditions: with med17_mouse Med17, Q8VCD5
row,Variant,effect of a mutation on the interaction
1,MDDLFPLIFPSEPAQASGPYVEIIEQPKQRGMRFRYKCEGRSAGSIPGERSTDTTKTHPTIKINGYTGPGTVRISLVTKDPPHRPHPHELVGKDCRDGYYEADLCPDRSIHSFQNLGIQCVKKRDLEQAISQRIQTNNNPFHVPIEEQRGDYDLNAVRLCFQVTVRDPAGRPLLLTPVLSHPIFDNRAPNTAELKICRVNRNSGSCLGGDEIFLLCDKVQKEDIEVYFTGPGWEARGSFSQADVHRQVAIVFRTPPYADPSLQAPVRVSMQLRRPSDRELSEPMEFQYLPDTDDRHRIEEKRKRTYETFKSIMKKSPFNGPTEPRPPTRRIAVPTRNSTSVPKPAPQPYTFPASLSTINFDEFSPMLLPSGQISNQALALAPSSAPVLAQTMVPSSAMVPLAQPPAPAPVLTPGPPQSLSAPVPKSTQAGEGTLSEALLHLQFDADEDLGALLGNSTDPGVFTDLASVDNSEFQQLLNQGVSMSHSTAEPMLMEYPEAITRLVTGSQRPPDPAPTPLGTSGLPNGLSAAASAAAIADMDFSALLSQISS [G528A;D529A;E530A;D531S;F532A;S533A;S534A],disrupting interaction
2,MDDLFPLIFPSEPAQASGPYVEIIEQPKQRGMRFRYKCEGRSAGSIPGERSTDTTKTHPTIKINGYTGPGTVRISLVTKDPPHRPHPHELVGKDCRDGYYEADLCPDRSIHSFQNLGIQCVKKRDLEQAISQRIQTNNNPFHVPIEEQRGDYDLNAVRLCFQVTVRDPAGRPLLLTPVLSHPIFDNRAPNTAELKICRVNRNSGSCLGGDEIFLLCDKVQKEDIEVYFTGPGWEARGSFSQADVHRQVAIVFRTPPYADPSLQAPVRVSMQLRRPSDRELSEPMEFQYLPDTDDRHRIEEKRKRTYETFKSIMKKSPFNGPTEPRPPTRRIAVPTRNSTSVPKPAPQPYTFPASLSTINFDEFSPMLLPSGQISNQALALAPSSAPVLAQTMVPSSAMVPLAQPPAPAPVLTPGPPQSLSAPVPKSTQAGEGTLSEALLHLQFDADEDLGALLGNSTDPGVFTDLASVDNSEFQQLLNQGVSMSHSTAEPMLMEYPEAITRLVTGSQRPPDPAPTPLGTSGLPNGLSGDEDFSSAAASAAAALLSQISS [I535A;D537A;M538S;D539A;F540A;S541A],disrupting interaction
3,MDDLFPLIFPSEPAQASGPYVEIIEQPKQRGMRFRYKCEGRSAGSIPGERSTDTTKTHPTIKINGYTGPGTVRISLVTKDPPHRPHPHELVGKDCRDGYYEADLCPDRSIHSFQNLGIQCVKKRDLEQAISQRIQTNNNPFHVPIEEQRGDYDLNAVRLCFQVTVRDPAGRPLLLTPVLSHPIFDNRAPNTAELKICRVNRNSGSCLGGDEIFLLCDKVQKEDIEVYFTGPGWEARGSFSQADVHRQVAIVFRTPPYADPSLQAPVRVSMQLRRPSDRELSEPMEFQYLPDTDDRHRIEEKRKRTYETFKSIMKKSPFNGPTEPRPPTRRIAVPTRNSTSVPKPAPQPYTFPASLSTINFDEFSPMLLPSGQISNQALALAPSSAPVLAQTMVPSSAMVPLAQPPAPAPVLTPGPPQSLSAPVPKSTQAGEGTLSEALLHLQFDADEDLGALLGNSTDPGVFTDLASVDNSEFQQLLNQGVSMSHSTAEPMLMEYPEAITRLVTGSQRPPDPAPTPLGTSGLPNGLSGDEDFSSIADMAASALLSQISS [D539A;F540A],disrupting interaction

# Reference: IntAct's records for PubMed 19338389
